Key:
[1] = system: acute coronary syndromes; details: treated patients; Annals of Oncology 2007; cited from earlier work
[2] = 48 hours at room temperature or at 4° Celsius; cited from earlier work
[3] = Smith 2000; cited from earlier work
[4] = system: metastatic colorectal cancer; details: cited from earlier work
[5] = system: troponin T; details: human, in vivo
[6] = system: NT-proBNP; details: human, in vivo
[7] = system: cardiovascular system; details: human, in vivo
Protocol: Three years later, advanced colorectal cancer is diagnosed necessitating a suitable cancer therapy. The left ventricular ejection fraction (LVEF) is determined by echocardiography (40%) indicating a minor systolic dysfunction. Moreover, the amounts of a troponin T (12 pg/ml) and NT-proBNP (510 pg/ml) are determined in a sample of the patient. The patient is subjected to a cardiac stress test showing that a region of the posterior myocardial wall has a dysfunctional contractility (reversible perfusion defects). Coronary angiography is carried out indicating 80% stenosis of the artery that supplies the region of dysfunctional contractility with blood. Two weeks after successful revascularization of the affected myocardial regions, troponin T (6 pg/ml) and NT-proBNP (180 pg/ml) are determined again. A therapy with VEGF-inhibitors is started; troponin T and NT-proBNP are measured monthly. During the therapy with VEGF-inhibitors the levels of these two biomarkers remain stable. Also, the therapy is effective indicated by a reduced tumor size as well as by reduced CEA levels (carcinoembryonic antigen). […] Examples are shown herein below.

[8] = system: troponin T and/or NT-proBNP; experiment: Levels of troponin T and/or NT-proBNP before and during therapy in 27 patients; assay type: in vivo, human
Description: Examples are shown herein below.

CNC(=O)c1cc(Oc2ccc(NC(=O)Nc3ccc(Cl)c(C(F)(F)F)c3)cc2)ccn1 [sorafenib]
patients with induced acute coronary syndromes [1]: 2.9%

BNP: Brain Natriuretic Peptide, active hormone, 32 amino acids
concentration loss on storage [2]: at least 20%
in-vivo half-life [3]: 0.333 h

Bevacizumab: monoclonal antibody against the vascular endothelial growth factor (VEGF)
survival [4]: significantly improves survival
change of troponin T during treatment [5]: further increase of troponin T
NT-proBNP level [6]: 1916 pg/mL
adverse side effects on the cardiovascular system [7]: no adverse side effects on the cardiovascular system
patients in whom the levels of the markers remained unchanged (no significant increase) ([8]; 27 patients, serum, before vs during therapy): more than 80%
change of the measured markers (Troponin T and NT-proBNP) ([8]; patient 4208, day 13 vs day 57 after therapy start): Significant increases

B1: NT-proBNP: N-terminal pro peptide of proBNP, 76 amino acids (protein, UniProt P16860 27-102, looked up)
NT-proBNP: HPLGSPGSASDLETSGLQEQRNHLQGKLSELQVEQTSLEPLQESPRPTGVWKSREVATEGIRGHRKMVLYTLRAPR
modifications: NT-proBNP
notes: N-terminal pro peptide of proBNP, 76 amino acids
in-vivo half-life [3]: 2 h

From patent US20110113865A1, “USING CARDIAC TROPONIN FOR MONITORING ANTI-ANGIOGENESIS THERAPY” (priority 2008, published 2011)
